# Columns and labels:
# [1] = target: T1, CD40 protein displayed on cell surface (UniProt P25942 21-277, limits assumed); assay: flow cytometry on HEKBlue CD40L reporter cells, fluorescent secondary antibody, median fluorescence
# T1 construct: whole, on cells; One entry for cell-surface full-length CD40 in all cell assays; also called CD40 on HEKBlue CD40L reporter cells; CD40-expressing cell
# Excerpt: (§1) HEKBlue CD40L reporter cells were harvested and stained with anti-CD40 and fluorescent secondary antibodies. Antibodies binding are shown in median fluorescence intensity.
# [2] = target: T1, CD40 protein displayed on cell surface; assay: cell-based or functional assay
# [3] = target: T2, recombinant CD40 ECD-Fc fusion protein (UniProt P25942 21-193, limits assumed, biotinylated (site not stated)); assay: BLI (Octet), biotinylated CD40 ECD-Fc captured on streptavidin probe, antibody in solution
# T2 construct: extracellular domain; also called biotinylated CD40 ECD-Fc; not shown: Fc
# T2 sequence (P25942 21-193 limits assumed): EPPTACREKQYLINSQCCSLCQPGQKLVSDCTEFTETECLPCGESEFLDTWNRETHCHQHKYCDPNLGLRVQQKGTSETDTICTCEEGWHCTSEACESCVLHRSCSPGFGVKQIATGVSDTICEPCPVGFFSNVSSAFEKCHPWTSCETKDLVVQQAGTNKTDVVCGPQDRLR
# Description: Binding affinity to recombinant CD40 ECD-Fc fusion protein were determined using Bio-Layer Interferometry (BLI) on Octet system. Briefly, biotinylated CD40 ECD-Fc were captured by streptavidin probe and the antibody association/dissociation were measured with light interferometry in realtime. KD were then calculated by Kₒₙ and Koff.
# [4] = target: T1, CD40 protein displayed on cell surface; assay: flow cytometry on HEKBlue CD40L reporter cells, fluorescent secondary antibody, median fluorescence intensity
# Excerpt: as §1
# [5] = target: T1, CD40 protein displayed on cell surface; assay: binding to CD40-expressing cell; method not described
# T1 sequence (P25942 21-277 limits assumed): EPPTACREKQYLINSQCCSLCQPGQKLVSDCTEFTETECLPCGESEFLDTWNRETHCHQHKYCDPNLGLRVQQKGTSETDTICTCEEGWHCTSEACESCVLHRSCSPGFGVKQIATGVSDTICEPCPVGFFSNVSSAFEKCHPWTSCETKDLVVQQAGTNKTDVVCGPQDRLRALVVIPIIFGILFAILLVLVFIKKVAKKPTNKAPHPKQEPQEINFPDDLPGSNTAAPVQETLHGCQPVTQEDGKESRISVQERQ
Binder,EC50 [1],"EC50 in activating B cell assessed by CD80 expression (CD19+ cells, flow cytometry) [2]","EC50 in activating B cell assessed by CD86 expression (CD19+ cells, flow cytometry) [2]",EC50 in activating MoDC assessed by CD86 expression [2],EC50 in activating monocyte derived dendritic cell (MoDC) assessed by CD80 expression [2],"EC50 of CD40 activation, SEAP activity (Quanti-Blue, absorbance at 650 nm) of HEKBlue CD40L reporter cells [2]",Kd [3],EC50 [4],binding result [5]
"APX005M (antibody, V domains shown) VH: QVQLVESGGGVVQPGRSLRLSCAASGFSFSSTYVCWVRQAPGKGLEWIACIYTGDGTNYSASWAKGRFTISKDSSKNTVYLQMNSLRAEDTAVYFCARPDITYGFAINFWGPGTLVTVSS VL: DIQMTQSPSSLSASVGDRVTIKCQASQSISSRLAWYQQKPGKPPKLLIYRASTLASGVPSRFSGSGSGTDFTLTISSLQPEDVATYYCQCTGYGISWPIGGGTKVEIK",0.123 µg/mL,410 pM,21 pM,1700 pM,1600 pM,10000 pM,41 pM,820 pM,
"Antibody clone 6-z (antibody, V domains shown, Humanized antibody based on clone 6; also called 6H2-z/6L2-z) VH: EVQLVESGGGLVQPGGSLRLSCAASGFDFSRYHMSWVRQAPGKGLEWVGIIYVSDNTYYATWAKGRFTISRDNSKNTLYLQMNSLRAEDTAVYYCVRVGSFWSSKLWGQGTLVTVSS VL: DIQMTQSPSTLSASVGDRVTITCQASENIYSSLAWYQQKPGKAPKLLIYEASNLESGVPSRFSGSGSGTEFTLTISSLQPDDFATYYCQSTYFGNSYVFAFGGGTKVEIK",,,,,,,,,binds
"Antibody clone 233 (antibody, V domains shown, Rabbit monoclonal antibody; also called 233H1/233L1) VH: QEQLVESGGGLVQPEGSLTLTCTASGFSFSYYSWACWVRQAPGKGLEWIACIDGGGSRATYYASWAKGRFTISTTSSTTVTLQMTSLTAADTATYFCSRSDYNGYISYFDLWGPGTLVTVSS VL: AFELTQTPSSVEAAVGGTVTINCQASQSIRSDLAWYQQKPGQPPKLLIYKASTLASGVPSRFRGSGSGTEYTLTISDLECADAATYYCQSYYHSSSTAFGGGTEVVVK",,,,,,,12 pM,,
"Antibody clone 6 (antibody, V domains shown, Rabbit monoclonal antibody; also called 6H2/6L2) VH: QSLEESGGRLVTPGTPLTLTCTASGFDFSRYHMCWVRQAPGKGLEWIGIIYVSDNTYYATWAKGRFTISRTSTTVDLKITSPTTEDTATYFCVRVGSFWSSKLWGPGTLVTVSS VL: DVVMTQTPASVSEPVGGTVTINCQASENIYSSLAWYQQKPGQPPKLLIYEASNLESGVSSRFSGSGSGTEFTLTISDLECADAATYYCQSTYFGNSYVFAFGGGTEVVVK",0.0945 µg/mL,170 pM,140 pM,22000 pM,29000 pM,8000 pM,377 pM,630 pM,
"Antibody clone 166 (antibody, V domains shown, Rabbit monoclonal antibody; also called 166H2/166L1) VH: QSLEESGGRLVTPGTPLTLTCTASGFDLSRYHMNWVRQAPGKGLEWIGIIYVSDDSYYASWAKGRFTISKTSTAVDLKITSPTTEDTATYFCARVGSVWSSKLWGPGTLVTVSS VL: DVVMTQTPASVSEPVGGTVTIKCQASENIYNNLAWYQQKPGQPPKLLIYRASTLESGVPSRFKGSGSGTEFTLTISDLECADAATYYCQSTYFGGSYVFAFGGGTEVVVK",,,,,,,420 pM,,
"Antibody clone 5-z (antibody, V domains shown, Humanized antibody based on clone 5; also called 5H2-z/5L2-z) VH: EVQLVESGGGLVQPGGSLRLSCAASGFSLSSNAISWVRQAPGKGLEWVGIIYASGDTYYASWAKGRFTISRDNSKNTLYLQMNSLRAEDTAVYYCARGYTTLYFWGQGTLVTVSS VL: DIQMTQSPSSVSASVGDRVTITCQASESISTRLAWYQQKPGKAPKLLIYSASTLPSGVPSRFSGSGSGTDFTLTISSLQPEDFATYYCQGGYSSGAGTAFGGGTKVEIK",,,,,,,,,binds
"Antibody clone 5 (antibody, V domains shown, Rabbit monoclonal antibody; also called 5H2/5L2) VH: QSVKESGGGLFKPTDTLTLTCTVSGFSLSSNAISWVRQAPGKGLEWIGIIYASGDTYYASWAKGRFTISKTSSTTVDLKMTSLTTEGTATYFCARGYTTLYFWGPGTLVTVSS VL: QIVMTQTPASVSAAVGGTVTIKCQASESISTRLAWYQQKPGQPPKLLIYSASTLPSGVPSRFSGSGSGTDFTLTISGVQCDDAATYYCQGGYSSGAGTAFGGGTEVVVK",0.0541 µg/mL,2.7 pM,1.5 pM,1300 pM,740 pM,340 pM,6.04 pM,360 pM,
"Antibody clone 151 (antibody, V domains shown, Rabbit monoclonal antibody; also called 151H1/151L1) VH: QSVEESGGRLVTPGTPLTLTCTVSGFSLSSNAISWVRQAPGKGLEWIGVIDAGGSTYFASWAKGLFTISKTSSTTVDLQMTSLTTEDTATYFCARGWSRHDFWGPGTLVTVSS VL: DVVMTQTPASVSEPVGGTVTIKCQASQSISNILAWYQQKPGQPPRLLIYSASTLASGVSSRFKASGSGTEFTLTISDLECADAATYYCQGYDSTVGVGAFGGGTEVVVK",,,,,,,84 pM,,
